Assay results taken from patent US12643954B2, “Anti-CD36 antibodies and their use to treat cancer” (ONA Therapeutics, S.L., priority 2020, dated 2026).

Tests used:
HCT-116 cells = experiment: HCT-116 orthotopic mouse model of colon cancer (Example 8); type: in vivo
Protocol: Studies of the effects of the ONA-0-v1 anti-CD36 antibody on colon cancer were performed in BALB/c nude mice (immuno-deficient). The studies included only female mice. All mice were inoculated with commercially available HCT-116 (ATCC) cancer cells, transduced with a retroviral vector expressing luciferase. HCT-116 cells were derived from a human colorectal carcinoma (i.e., from a colon cancer). Prior to inoculation, the HCT-116 cells were cultured in a humidified incubator at 37° C. with 5% CO2, and were grown in McCoy's 5A medium supplemented with 5 μg ml^−1 penicillin/streptomycin and 10% FBS (GIBCO).
For each mouse, 2×10^6 HCT-116 cells were inoculated via orthotopic injection. Each mouse was imaged after inoculation and one week later and liver metastasis were confirmed by ex vivo luminescence prior to start of treatment. Treatment began 14 days after inoculation with the HCT-116 cells. Inoculated mice were divided into one of two treatment groups: vehicle injection control (n=10) or ONA-0-v1 treatment (n=10). Antibody treatments were administered via intraperitoneal (i.p.) injection daily at a dose of 3 mg/kg, while control mice received an equal volume of vehicle on the same schedule. At 7, 14, and 21 days after start of treatment, all mice were imaged via IVIS. Mice were sacrificed at the end of the treatment period (day 25). Upon sacrifice, organs and tissues were collected for performance of necropsy, ex-vivo IVIS, and histopathology.

mouse CD36 = molecular target: T1, mouse CD36 (Mus musculus, UniProt Q08857); experiment: ELISA binding to plate-coated mouse CD36; details: recombinant mouse CD36 coated plates
T1 construct: purchased Sino Biological 50422-M08H
T1 sequence (Q08857 30-439 limits assumed): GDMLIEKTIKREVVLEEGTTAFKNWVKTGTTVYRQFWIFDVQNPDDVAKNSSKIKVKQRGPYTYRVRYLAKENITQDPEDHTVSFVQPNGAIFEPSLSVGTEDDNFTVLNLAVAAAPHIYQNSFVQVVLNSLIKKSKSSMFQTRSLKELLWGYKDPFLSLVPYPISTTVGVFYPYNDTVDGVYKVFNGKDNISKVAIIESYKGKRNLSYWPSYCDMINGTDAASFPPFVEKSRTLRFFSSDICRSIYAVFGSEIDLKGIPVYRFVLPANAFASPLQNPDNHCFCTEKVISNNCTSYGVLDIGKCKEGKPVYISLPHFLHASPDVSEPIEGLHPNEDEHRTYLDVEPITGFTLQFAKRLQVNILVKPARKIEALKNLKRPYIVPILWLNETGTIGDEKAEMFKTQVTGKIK
Protocol: To perform ELISA assays, 96-well ELISA plates were coated over night with human CD36 (Sino Biological, reference 10752-H08H) or mouse CD36 (Sino Biological, reference 50422-M08H) recombinant proteins at a concentration of 0.25 mg/ml. After two washes with PBS, plates were blocked with 4% skimmed milk in PBS for 1 hour at 37° C. Blocking solution was discarded and plates were washed five times with 200 μl/well PBS-Tween20 (0.5%). Primary antibodies were either omitted (control blocking solution treatment) or mixed in blocking solution at several dilutions ranging from 0.01 nM to 0.5 μM. The primary antibody solutions were added to the wells and incubated over night at 4° C. After 5 washes with 200 ul/well of PBS-Tween20 (0.5%), plates were incubated for 1 hour at room temperature with a goat anti-mouse HRP-conjugated antibody (Abeam, reference ab97235) diluted 1:2000 in blocking solution. Plates were then washed 5 times with 200 μl/well of PBS-Tween20 (0.5%), incubated with 100 μl/well TMB and detected after 10 minutes, 30 minutes, or 60 minutes with a spectrophotometer at a wave length of 630 nm.

OVCAR-3 cells [1] = experiment: OVCAR-3 orthotopic mouse model of ovarian cancer (Example 9); type: in vivo
Protocol: (§1) Studies of the effects of the ONA-0-v1 and 1G04 anti-CD36 antibodies on ovarian cancer were performed in NSG mice (immuno-deficient). The studies included only female mice. All mice were inoculated with commercially available OVCAR-3 (ATCC) cancer cells. OVCAR-3 cells were derived from a human progressive adenocarcinoma of the ovary (i.e., from an ovarian cancer). For each mouse, a piece of an OVCAR-3 xenograft was implanted orthotopically. Prior to inoculation, the OVCAR-3 cells were cultured in a humidified incubator at 37° C. with 5% CO2, and were grown in RPMI-1640 supplemented with 5 μg ml^−1 penicillin/streptomycin, 0.01 mg/ml bovine insulin and 20% FBS (GIBCO).
Treatment of the implanted mice began 7 days after implantation with the OVCAR-3 tumor pieces. Inoculated mice were divided into one of three treatment groups: vehicle injection control (n=9), ONA-0-v1 treatment (n=9), or 1G04 treatment (n=9). ONA-0-v1 antibody treatments were administered via intraperitoneal (i.p.) injection daily at a dose of 3 mg/kg. 1G04 antibody treatments were administered via i.p. injection TIW (three-times weekly) at a dose of 10 mg/kg. Control mice received an equal volume of vehicle daily. […] Mice were sacrificed at the end of the treatment period. Upon sacrifice, organs and tissues were collected for performance of necropsy and histopathology analysis.

OVCAR-3 cells [2] = experiment: OVCAR-3 orthotopic mouse model of ovarian cancer (Example 7); type: in vivo
Protocol: as §1, with “ONA-0-v1” for “ONA-0-v1 and 1G04”, “antibody” for “antibodies”, “cancer).” for “cancer). For each mouse, a piece of an OVCAR-3 xenograft was implanted orthotopically.”, “inulin” for “insulin”
For each mouse, a piece of an OVCAR-3 xenograft was implanted orthotopically. […] Mice implanted with OVCAR-3 also develop metastases in both the peritoneal wall and liver.
Treatment of the implanted mice began 23 days after implantation with the OVCAR-3 tumor pieces. Inoculated mice were divided into one of two treatment groups: vehicle injection control (n=9) or ONA-0-v1 treatment (n=9). Antibody treatments were administered via intraperitoneal (i.p.) injection daily at a dose of 3 mg/kg, while control mice received an equal volume of vehicle on the same schedule. Mice were sacrificed at the end of the treatment period. Upon sacrifice, organs and tissues were collected for performance of immunohistochemistry analysis.

B1: ONA-0-v1: murine IgA anti-CD36 antibody; heavy chain SEQ ID NO: 5, light chain SEQ ID NO: 7 (antibody)
heavy: QVQLKQSGADLVRPGASVKLSCKASGYTFTDYYINWVKQRPGQGLEWIARIYPGSGNTYYNEKFKGKATLTAEKSSSTAYMQLSSLTSEDSAVYFCARGIGGGFGMDYWGQGTSVTVSSESARNPTIYPLTLPPVLCSDPVIIGCLIHDYFPFGTMNVTWGKSGKDITTVNFPPALASGGRYTMSSQLTLPAVECPEGESVKCSVQHDSNPVQELDVNCSPTPPPPITIPSCQPSLSLQRPALEDLLLGSDASITCTLNGLRNPEGAAFTWEPSTGKDAVQKKAAQNSCGCYSVSSVLPGCAERWNSGASFKCTVTHPESGTLTGTIAKVTVNTFPPQVHLLPPPSEELALNELLSLTCLVRAFNPKEVLVRWLHGNEELSPESYLVFEPLKEPGEGATTYLVTSVLRVSAETWKQGDQYSCMVGHEALPMNFTQKTIDRLSGKPTNVSVSVIMSEGDGICY
light: SIVMTQTPKFLLVSAGDRITITCKASQSVSDDVAWYQQKPGQSPKLLIYYASNRYTGVPDRFTGSGYGTDFTFTISTVQAEDLAVYFCQQDYSSPLTFGAGTKLEIKRADAAPTVSIFPPSSEQLTSGGASVVCFLNNFYPKDINVKWKIDGSERQNGVLNSWTDQDSKDSTYSMSSTLTLTKDEYERHNSYTCEATHKTSTSPIVKSFNRNEC
modifications: ONA-0-v1 heavy chain; ONA-0-v1 light chain
in vivo total tumor bioluminescence over time (HCT-116 cells; 3 mg/kg i.p. daily, day 21): reduced the growth of the tumor
ex vivo luminescence, kidney (HCT-116 cells; IVIS at sacrifice): 1.08*10^6
ex vivo luminescence, liver (HCT-116 cells; IVIS at sacrifice): 9.02*10^7
ex vivo luminescence, lung (HCT-116 cells; IVIS at sacrifice): 1.24*10^6
ex vivo luminescence, spleen (HCT-116 cells; IVIS at sacrifice): 1.79*10^8
body weight as percent of starting body weight (HCT-116 cells; day 18): 91.1%
ex vivo primary tumor bioluminescence, average radiance (HCT-116 cells; day 25): 1.51*10^10
percentage of mice with tumors in their liver (HCT-116 cells; ex vivo luminescence): 60%
percentage of mice with tumors in their lungs (HCT-116 cells; ex vivo luminescence): 60%
binding to mouse CD36 in ELISA (mouse CD36): able to specifically bind
decrease in total number of metastases relative to vehicle (OVCAR-3 cells [1]; ONA-0-v1 3 mg/kg i.p. daily, 1G04 10 mg/kg i.p. TIW): approximately 45%
mice free of metastasis in the liver (OVCAR-3 cells [1]; macroscopic analysis): 78%
mice having 1-2 mm metastasis in the liver (OVCAR-3 cells [1]; macroscopic analysis): 17%
mice having 1-2 mm metastasis in the peritoneal wall (OVCAR-3 cells [1]; macroscopic analysis): 19%
mice having 2-5 mm metastasis in the liver (OVCAR-3 cells [1]; macroscopic analysis): 6%
mice having 2-5 mm metastasis in the peritoneal wall (OVCAR-3 cells [1]; macroscopic analysis): 19%
mice having <1 mm metastasis in the liver (OVCAR-3 cells [1]; macroscopic analysis): none
mice having >5 mm metastasis in the peritoneal wall (OVCAR-3 cells [1]; macroscopic analysis): 19%
mice metastasis-free in the peritoneal wall (OVCAR-3 cells [1]; macroscopic analysis): 44%
animals free of metastases in the lung (OVCAR-3 cells [1]; microscopic analysis): 44%
mean metastasis number in the lungs per mouse (OVCAR-3 cells [1]; microscopic analysis): 1.6
weight of mice throughout the treatment period (OVCAR-3 cells [1]; mouse, in vivo): remained the same
total number of metastases counted (OVCAR-3 cells [1]; visual inspection of organs, sum per group): 29
average primary tumor weight (OVCAR-3 cells [2]; 3 mg/kg i.p. daily): 1.058 g
decrease of primary tumor weight vs vehicle (OVCAR-3 cells [2]; 3 mg/kg i.p. daily): 43%
SR (Sirius red) positive area of primary tumors (OVCAR-3 cells [2]; collagenous and fibrotic areas): 22.5%
percent necrosis of primary tumors (OVCAR-3 cells [2]; histology, pathologist quantification): approximately 40.71%
animals with large metastasis (>5 mm) in the peritoneal wall (OVCAR-3 cells [2]; macroscopic analysis): no large metastasis were detected
animals with no metastasis in the peritoneal wall (OVCAR-3 cells [2]; macroscopic analysis): 63%
animals with small metastasis (1-2 mm) in the peritoneal wall (OVCAR-3 cells [2]; macroscopic analysis): 38%
large liver metastasis (OVCAR-3 cells [2]; macroscopic analysis): 6%
mice without metastasis in the liver (OVCAR-3 cells [2]; macroscopic analysis): 50%
small liver metastasis (OVCAR-3 cells [2]; macroscopic analysis): 44%
